Laboratory results as given in article doi:10.1101/2024.11.06.622243, “The MRAP2 accessory protein directly interacts with melanocortin-3 receptor to enhance signaling” (bioRxiv, 2024).

B1: FLAG-CLIP-MRAP2 (melanocortin-2 receptor accessory protein-2) (natural protein, human, UniProt Q96G30 1-205, looked up)
chain: MSAQRLISNRTSQQSASNSDYTWEYEYYEIGPVSFEGLKAHKYSIVIGFWVGLAVFVIFMFFVLTLLTKTGAPHQDNAESSEKRFRMNSFVSDFGRPLEPDKVFSRQGNEESRSLFHCYINEVERLDRAKACHQTTALDSDVQLQEAIRSSGQPEEELNRLMKFDIPNFVNTDQNYFGEDDLLISEPPIVLETKPLSQTSHKDLD
modifications: BC-DY547 dye on the CLIP tag
notes: human melanocortin-2 receptor accessory protein 2 (MRAP2); pRK5 construct with an N-terminal signal peptide from rat mGluR2 before the tags; also called ss-FLAG-CLIP-MRAP2; source: HEK293, transiently transfected, in lysate (LMNG-CHS); not shown: FLAG, N-terminal, kept; CLIP, N-terminal, kept
B2: mGluR2 (receptor, UniProt P31421 19-872, looked up)
chain: EGPAKKVLTLEGDLVLGGLFPVHQKGGPAEECGPVNEHRGIQRLEAMLFALDRINRDPHLLPGVRLGAHILDSCSKDTHALEQALDFVRASLSRGADGSRHICPDGSYATHSDAPTAVTGVIGGSYSDVSIQVANLLRLFQIPQISYASTSAKLSDKSRYDYFARTVPPDFFQAKAMAEILRFFNWTYVSTVASEGDYGETGIEAFELEARARNICVATSEKVGRAMSRAAFEGVVRALLQKPSARVAVLFTRSEDARELLAATQRLNASFTWVASDGWGALESVVAGSERAAEGAITIELASYPISDFASYFQSLDPWNNSRNPWFREFWEERFHCSFRQRDCAAHSLRAVPFEQESKIMFVVNAVYAMAHALHNMHRALCPNTTHLCDAMRPVNGRRLYKDFVLNVKFDAPFRPADTDDEVRFDRFGDGIGRYNIFTYLRAGSGRYRYQKVGYWAEGLTLDTSFIPWASPSAGPLPASRCSEPCLQNEVKSVQPGEVCCWLCIPCQPYEYRLDEFTCADCGLGYWPNASLTGCFELPQEYIRWGDAWAVGPVTIACLGALATLFVLGVFVRHNATPVVKASGRELCYILLGGVFLCYCMTFVFIAKPSTAVCTLRRLGLGTAFSVCYSALLTKTNRIARIFGGAREGAQRPRFISPASQVAICLALISGQLLIVAAWLVVEAPGTGKETAPERREVVTLRCNHRDASMLGSLAYNVLLIALCTLYAFKTRKCPENFNEAKFIGFTMYTTCIIWLAFLPIFYVTSSDYRVQTTTMCVSVSLSGSVVLGCLFAPKLHIILFQPQKNVVSHRAPTSRFGSAAPRASANLGQGSGSQFVPTVCNGREVVDSTTSSL
notes: metabotropic glutamate receptor 2 (mGluR2), control of the SiMPull photobleaching analysis; also called known dimeric GPCR mGluR2; source: HEK293, transfected, in lysate

Legend:
[1] = molecular target: T1, HA-Halo-MC3R (melanocortin-3 receptor) (human, UniProt P41968 1-323, CA-Sulfo646 dye on the Halo tag); assay: single-molecule pull-down (SiMPull); two-colour SiMPull: HA-Halo-tagged bait (CA-Sulfo646) and FLAG-CLIP-tagged prey (BC-DY547) co-expressed in HEK293 cells (300 ng Halo and 600 ng CLIP plasmid), labelled before lysis in 0.5% LMNG/0.05% CHS, bait immobilised by biotinylated anti-HA antibody, co-localisation and photobleaching steps by TIRF; conditions: partners not purified
T1 construct: human melanocortin-3 receptor (MC3R); pRK5 construct with an N-terminal signal peptide from rat mGluR2 before the HA and Halo tags; also called ss-HA-Halo-MC3R; source: HEK293, transiently transfected, in lysate (LMNG-CHS); not shown: HA, N-terminal, kept; Halo, N-terminal, kept
T1 sequence (P41968 whole entry): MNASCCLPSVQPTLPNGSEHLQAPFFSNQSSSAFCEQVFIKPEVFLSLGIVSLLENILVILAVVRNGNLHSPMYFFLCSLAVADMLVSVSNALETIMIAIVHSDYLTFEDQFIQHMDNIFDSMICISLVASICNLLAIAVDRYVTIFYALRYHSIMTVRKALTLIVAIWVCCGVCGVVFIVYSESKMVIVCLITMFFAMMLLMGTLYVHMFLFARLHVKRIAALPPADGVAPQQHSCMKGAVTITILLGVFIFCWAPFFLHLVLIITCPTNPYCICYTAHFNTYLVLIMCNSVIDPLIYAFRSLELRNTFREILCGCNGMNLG

[2] = molecular target: the molecule itself; assay: single-molecule pull-down (SiMPull); one-colour SiMPull with photobleaching step analysis: HA-Halo-tagged protein labelled on HEK293 cells with membrane-impermeable CA-Sulfo646, lysed in 0.5% LMNG/0.05% CHS, immobilised by biotinylated anti-HA antibody on a PEG-passivated slide, TIRF imaging

Binder | stoichiometry N [1] [MRAP2 per MC3R] | stoichiometry N [2]
B1 | 1 | 
B2 |  | 2
